Experiment [1] concerns the target T1, human CD33-His (extracellular domain Asp 18-His 259) (human, UniProt P20138 18-259).
T1 construct: range 18-259; bought protein; also called hCD33-his; human CD33 protein; not shown: His tag
The experiment can be described thus: ELISA on coated human CD33-his. The protocol:
In order to assay the binding activity of VHH-Fc to human CD33 protein, a human CD33-his protein (purchased from ACROBiosystems, Cat. No. CD3-H5226) was diluted with PBS to make a final concentration of 2 μg/mL, and then added into a 96-well ELISA plate at 100 μL/well. The plate was sealed with a plastic film and incubated at 4° C. overnight, washed twice with PBS the next day, and a blocking solution [PBS+2% (w/w) BSA] was added for blocking at room temperature for 2 h. The blocking solution was discarded, and VHH-Fc antibody or negative control antibody serially diluted from 100 nM was added at 50 μL/well. After incubation at 37° C. for 2 h, the plate was washed 3 times with PBS. A secondary antibody labeled with HRP (horseradish peroxidase) (purchased from Sigma, Cat. No. A0170) was added. After incubation for 1 h at 37° C., the plate was washed 5 times with PBS. A TMB substrate was added at 50 μL/well. After incubation at room temperature for 10 min, a stop solution (1.0 N HCl) was added at 50 μL/well. The OD450 nm values were read on an ELISA plate reader (Multimode Plate Reader, EnSight, purchased from Perkin Elmer). The assay results for the binding of the VHH-Fc to hCD33-his by ELISA are shown in FIGS. 7A and 7B and Tables 11 and 12. […] The IgG control was hIgG1, and the data in the table are OD450 nm values. […]
For orientation: In an ELISA, binding on a coated surface is turned into a signal by an enzyme label.

In experiment [2] the target is T1, human CD33-His (extracellular domain …). The experiment can be described thus: competitive ELISA vs coated S006-NB146-132 2ug/mL; soluble 25ug/ml. The protocol:
(§1) VHH antibodies and control antibodies with known epitopes were subjected to epitope classification with competitive ELISA. ELISA plates were coated with 2 μg/mL antibodies according to the method in Example 5.1; the human CD33-his protein was subjected to a gradient dilution from 30 μg/mL, and EC80 values (Tables 26-27) were calculated. ELISA plates were coated with 2 μg/mL antibodies; after 25 µg/mL of antibodies to be tested were added, a human CD33-his protein having an EC80 concentration corresponding to each of the antibodies to be tested was then added for incubation for 2 h. The plates were washed 5 times with PBS, then HRP-labeled anti-His antibodies (purchased from GenScript, Cat. No. A00612) were added for incubation for 1 h, and the plates were washed 5 times. A TMB substrate was added at 50 μL/well and incubated at room temperature for 10 min, then a stop solution (1.0 M HCl) was added at 50 μL/well. OD_{450 nm} values were read using an ELISA plate reader (Insight, purchased from PerkinElmer), and the competition rate between the antibodies was calculated according to the OD_{450 nm} values using a formula. The results are shown in FIGS. 12A-12B, the higher the value of the competition rate, the closer the epitopes to which two antibodies bind.

In the next experiment the target is T2, human CD33-C2-his (human, UniProt P20138 136-260).
T2 construct: expressed in HEK293E; also called hCD33-C2-his; human CD33 protein C2-domain; not shown: His tag
T2 sequence (P20138 other isoform, or with tags, fused parts or gaps limits assumed): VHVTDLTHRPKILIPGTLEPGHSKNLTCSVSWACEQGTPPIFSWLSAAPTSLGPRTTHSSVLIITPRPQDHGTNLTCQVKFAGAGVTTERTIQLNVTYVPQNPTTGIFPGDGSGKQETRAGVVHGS
Description: ELISA on coated human CD33-C2-his. The source says:
Plates were coated with human CD33-V-his (membrane distal end) and human CD33-C2-his (membrane proximal end), respectively, according to the ELISA method in Example 8. The VHH humanized antibodies were classified based on the membrane distal end and the membrane proximal end, as shown in FIGS. 20A-20J and Table 44, which allowed the classification of the VHH humanized antibodies into the following classes: […]

In experiment [3] the target is T3, human CD33 on U937 cells (endogenous) (human, UniProt P20138 18-364).
T3 construct: whole, on cells
T3 sequence (P20138 18-364): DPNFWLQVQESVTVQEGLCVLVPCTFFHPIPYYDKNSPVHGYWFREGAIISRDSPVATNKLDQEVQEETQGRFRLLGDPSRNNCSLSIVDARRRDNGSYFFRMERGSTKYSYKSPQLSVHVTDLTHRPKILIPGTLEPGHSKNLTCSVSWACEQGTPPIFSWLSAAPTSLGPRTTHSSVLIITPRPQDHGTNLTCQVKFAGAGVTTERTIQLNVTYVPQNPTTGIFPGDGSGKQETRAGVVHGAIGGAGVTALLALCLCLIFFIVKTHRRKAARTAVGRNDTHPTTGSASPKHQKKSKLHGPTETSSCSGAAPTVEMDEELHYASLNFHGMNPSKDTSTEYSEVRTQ
The experiment can be described thus: FACS, U937 cells. As for the experimental part: The desired cells were expanded to a logarithmic growth phase in a T-75 cell culture flask. For adherent cells CHO-K1, the culture medium was removed by pipetting, and the cells were washed twice with a PBS buffer, digested with trypsin, and washed twice with a PBS buffer again after the digestion was stopped. For suspension cells U937, the medium supernatant was discarded by direct centrifugation, and the cell pellet was washed twice with PBS, and then incubated with a buffer containing human Fc Block (purchased from BD, Cat. No. 564220) for 15 min. After the cells obtained in the last step were subjected to cell counting, the cell pellet was resuspended to 2×10⁶ cells/mL with a blocking solution [PBS+2% (w/w) BSA] and added to a 96-well FACS reaction plate at 50 μL/well. The VHH-Fc antibody (a sample to be tested) was added at 50 μL/well, and the plate was incubated on ice for 2 h. […] After the plate was centrifuged and washed 5 times with a PBS buffer, the results were assayed and analyzed by FACS (FACS Canto™, purchased from BD Biosciences), so as to obtain the mean fluorescence intensity (MFI) of cells. Then, analysis was performed by software (GraphPad Prism8), data were fitted, and EC50 values were calculated.
For orientation: Flow cytometry measures light scatter and fluorescence of single cells or particles in a stream.

In experiment [4] the target is T1, human CD33-His (extracellular domain …). Description: competitive ELISA vs coated S006-NB146-39 2ug/mL; soluble 25ug/ml. The protocol:
as §1

T1 sequence (P20138 18-259 limits assumed): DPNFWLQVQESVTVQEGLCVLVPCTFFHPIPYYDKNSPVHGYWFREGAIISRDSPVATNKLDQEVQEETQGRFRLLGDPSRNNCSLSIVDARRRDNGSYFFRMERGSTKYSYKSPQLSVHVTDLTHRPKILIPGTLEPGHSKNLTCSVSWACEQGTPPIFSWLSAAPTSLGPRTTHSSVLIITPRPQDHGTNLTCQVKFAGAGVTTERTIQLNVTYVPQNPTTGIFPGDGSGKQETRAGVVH

B1: C33B904 hIgG1 (antibody, V domains shown)
VH: EVQLVESGGGLVQPGRSLRLSCAASGFTFDDYAMHWVRQAPGKGLEWVSGIGWSGGSIVYADSVKGRFTISRDNAKNSLYLQMNSLRAEDTALYYCAKDSPYGDFFDYWGQGTLVTVSS
VL: DIVMTQSPDSLAVSLGERATINCKSSQTVFYSSNNKNYLAWYQQKPGQPPKLLISWASTRKSGVPDRFSGSGSGTDFTLTVSSLQAEDVAVYYCQHYYSTPYTFGQGTKLEIKR
notes: intact human IgG1; variable regions from US20190382481A1; also called C33B3904; C331B904
What is called EC50 (read off the curve) is the midpoint of the concentration-response curve. A high value points to lower potency in that assay. For orientation: EC50 means the concentration that produces a half-maximal response. High values mean a less potent agent, low ones a more potent agent. On to B1, for which the concentration giving a half-maximal response (EC50 (read off the curve)) was about 0.3 nM in experiment [1] and about 0.1 nM in the experiment with human CD33-C2-his. Moreover, the inhibition rate in experiment [2] came to 98%; in experiment [4], 85%. This molecule also yielded an EC50 in experiment [3] of 8.41 nM. In experiment [3], the “Max MFI” value amounted to 599 MFI.
